Here are results for 1 molecule from patent publication US20050153923A1, “Targeted drug delivery using EphA2 or EphA4 binding moieties” (priority 2003, published 2005).

“Also recorded” adds a separate entry of the source.

Assay [1] concerns A549 lung cancer cells. Put plainly: Tumor growth, A549 cells implanted subcutaneously into athymic mice. The format is in vivo. The conditions noted are these: 6 mg/kg i.p. twice a week for 3 weeks; FIG. 7C. As for the experimental part: Total tumor volume was determined after sacrifice.
Assay [2] deals with MDA-MB-231 tumor cells. Put plainly: Inhibition of colony formation in soft agar. The format is cell-based. The conditions noted are these: single dose 5 μg/ml purified antibody, FIG. 5. Here is the method: A single dose of 5 μg/ml of Eph099B-208.261 (black bar), EA2 (white bar) purified EphA2 antibodies or a negative control antibody, 1A7 (gray bar) were incubated with malignant MDA-MB-231 tumor cells for the indicated time at 37° C. in soft agar. Results are reported as colonies per high-powered field (HPF).
Briefly, cells were suspended in soft agar for 7 days at 37° C. in the presence of purified antibody or control solution (PBS). Antibodies were administered at the time of suspension in both bottom and top agar solutions. Colony formation was scored microscopically using an Olympus CK-3 inverted phase-contrast microscope outfitted with a 40× objective. Clusters containing at least three cells were scored as a positive.

For assay [3], the target named is T1, EphA2-Fc (human, UniProt P29317 24-537).
T1 construct: extracellular domain; also called fusion protein EphA2-Fc; not shown: human IgG1 constant region
Put plainly: competitive ELISA on EphA2-Fc, competitor labeled EA2. (In an ELISA, binding on a coated surface is turned into a signal by an enzyme label.)

Assay [4] relates to EphA2. Put plainly: EphA2 tyrosine phosphorylation in MDA-MB-231 cells (IP/Western blot). The format is cell-based. The conditions noted are these: MDA-MB-231 monolayers; single dose 5 μg/ml, 37° C. Here is the method: Monolayers of MDA-MB-231 cells were incubated in the presence of a single dose of 5 μg/ml (A, C) Eph099B-208.261 or (B, D) EA2 for the indicated time at 37° C. Cell lysates were then immunoprecipitated with an EphA2-specific antibody, resolved by SDS-PAGE and subjected to Western blot analysis with a phosphotyrosine-specific antibody (A, B). The membranes were stripped and re-probed with the EphA2-specific antibody used in the immunoprecipitation as a loading control (C, D).
(§1) Monolayers of MDA-MB-231 cells were incubated in the presence of a single dose of 5 μg/ml Eph099B-233.152 at 37° C. Cell lysates were then immunoprecipitated with D7 (an EphA2-specific antibody), resolved by SDS-PAGE and subjected to Western blot analysis with (A) a phosphotyrosine-specific antibody or (B) an EphA2-specific antibody.
EphA2 antibodies promoted tyrosine phosphorylation and degradation of EphA2 in MDA-MB-231 cells. Monolayers of cells were incubated in the presence of EphA2 agonistic antibodies or control at 37° C. […]
(§2) Western blot analyses and immunoprecipitations were performed as described previously (Zantek et al., 1999, Cell Growth Diff. 10: 629-38, which is incorporated by reference in its entirety). […] Antibody binding was detected by enhanced chemiluminescence (Pierce, Rockford, Ill.) and autoradiography (Kodak X-OMAT; Rochester, N.Y.).
(In western blotting, separated proteins are transferred to a membrane and probed.)

Assay [5] concerns EphA2. Nature of the assay: EphA2 degradation / protein level in MDA-MB-231 cells (Western blot). The format is cell-based. Conditions: MDA-MB-231 monolayers; single dose 5 μg/ml, 37° C. As for the experimental part: Monolayers of MDA-MB-231 cells were incubated in the presence of a single dose of 5 μg/ml (A, C) Eph099B-208.261 or (B, D) EA2 for the indicated time at 37° C. Cell lysates were then resolved by SDS-PAGE and subjected to Western blot analysis with an EphA2-specific antibody (A, B).
as §1
Monolayers of MDA-MB-231 cells were incubated in the presence of EphA2 agonistic antibodies at 37° C. Cell lysates were then resolved by SDS-PAGE and subjected to Western blot analysis with an EphA2-specific antibody (D7). […] Decreased EphA2 expression is due, in part, to deceased mRNA expression levels in response to EphA2 protein degradation caused by agonistic antibody binding (data not shown).
as §2

Assay [6] deals with T2, EphA2-Fc (Homo sapiens, UniProt P29317).
T2 construct: consisted of the extracellular domain of human EphA2 linked to human immunoglobulin
Nature of the assay: BIACORE surface plasmon resonance Koff measurement on immobilized EphA2-Fc. The format is binding. Conditions: FIG. 15. The source says: FIG. 15: Kinetic analysis of EphA2 monoclonal antibodies. BIACORE™ (surface plasmon resonance-based) assays were used to assay the kinetics of EphA2 monoclonal antibody binding to immobilized EphA2-Fc.
The surface plasmon resonance-based BIACORE™ assay was used to measure the Koff rates of the monoclonal antibodies of the invention. IgG present in the hybridoma supernatant was used for measurement. Antibodies with Koff rates of approximately less than 3×10^−3 s^−1 have slow Koff rates. Antibodies with Koff rates of approximately 8×10^−4 s^−1 or less have very slow Koff rates. Antibodies with Koff rates of approximately 9×10^−5 s^−1 or less have ultra slow Koff rates.
EphA2-Fc was immobilize to a surface on a CM5 sensorchip using a standard amine (70 μl of a 1:1 mix of NHS/EDC) coupling chemistry. Briefly, a 400 nM solution of EphA2-Fc in 10 mM NaOAc, pH4, was then injected over the activated surface to a density of 1000-1100 RU's. Unused reactive esters were subsequently “capped” with a 70 μl injection of 1M Et-NH2. Similarly, an activated and “capped” control surface was prepared on the same sensor chip without protein to serve as a reference surface.
A 250 μl injection of each of the EphA2 hybridoma supernatants was made over both the EphA2-Fc and control surfaces, and the binding responses were recorded. These supernatants were used undiluted. […]

In assay [7] the test system is MDA-MB-231 breast cancer cells. Nature of the assay: Tumor growth and survival, MDA-MB-231 cells implanted subcutaneously into athymic mice. The conditions noted are these: 6 mg/kg i.p. twice a week for 3 weeks vs PBS or 1A7; FIG. 7B, D.
Protocol: MDA-MB-231 cells were implanted subcutaneously into athymic mice. […] Tumor growth was assessed and expressed as a ratio of the tumor volume divided by initial tumor volume (100 mm^3).
(D) MDA-MB-231 breast cancer cells were implanted subcutaneously into athymic mice. […] Total tumor volume was determined after sacrifice.
Briefly, 5×10^6 MDA-MB-231 breast cancer cells were implanted subcutaneously into athymic mice. […] Tumor growth was assessed and expressed as a ratio of the tumor volume divided by initial tumor volume (100 mm^3).
5×10^6 MDA-MB-231 breast cancer cells were implanted orthotopically or subcutaneously and 5×10^6 A549 lung cancer cells were implanted subcutaneously into athymic mice. […] Tumor growth was assessed and expressed either as a ratio of the tumor volume divided by initial tumor volume (100 mm^3) or as total tumor volume.
Assay [8] has as its system cancer cells. Put plainly: Elimination of cancer cell colonies already formed in soft agar (antibody added on third day). The conditions noted are these: data not shown. The format is cell-based. The source says: Assay methods were similar to those described above except that antibodies were not added to the cancer cells until the third day of growth in soft agar.
Assay [9] concerns the target T2, EphA2-Fc. Nature of the assay: Competitive ELISA: inhibition of labeled EA2 binding to EphA2-Fc. Conditions: unlabeled antibody, increasing concentrations; FIG. 1. As for the experimental part: The ability of labeled EA2 monoclonal antibody to bind EphA2-Fc was assayed by competitive ELISA in presence of either unlabeled monoclonal antibodies EA2 or Eph099B-208.261. Ratios of unlabeled to labeled antibody used in the assay are indicated on the x-axis.
Supernatants from bulk culture hybridomas were screened for immunoreactivity against EphA2 (Table 9, column 4) using standard molecular biological techniques (e.g., ELISA immunoassay). Supernatants were further screened for the ability to inhibit an EphA2 monoclonal antibody (EA2; ATCC deposit no. PTA-4380; see co-pending U.S. patent application Ser. No. 10/436,783, entitled “EphA2 Agonistic Monoclonal Antibodies and Methods of Use Thereof” filed May 12, 2003) from binding to EphA2. […] Additionally, many of the other antibodies could inhibit EA2 binding to EphA2 as well (Table 9, column 3).

T2 sequence (P29317 24-537 limits assumed): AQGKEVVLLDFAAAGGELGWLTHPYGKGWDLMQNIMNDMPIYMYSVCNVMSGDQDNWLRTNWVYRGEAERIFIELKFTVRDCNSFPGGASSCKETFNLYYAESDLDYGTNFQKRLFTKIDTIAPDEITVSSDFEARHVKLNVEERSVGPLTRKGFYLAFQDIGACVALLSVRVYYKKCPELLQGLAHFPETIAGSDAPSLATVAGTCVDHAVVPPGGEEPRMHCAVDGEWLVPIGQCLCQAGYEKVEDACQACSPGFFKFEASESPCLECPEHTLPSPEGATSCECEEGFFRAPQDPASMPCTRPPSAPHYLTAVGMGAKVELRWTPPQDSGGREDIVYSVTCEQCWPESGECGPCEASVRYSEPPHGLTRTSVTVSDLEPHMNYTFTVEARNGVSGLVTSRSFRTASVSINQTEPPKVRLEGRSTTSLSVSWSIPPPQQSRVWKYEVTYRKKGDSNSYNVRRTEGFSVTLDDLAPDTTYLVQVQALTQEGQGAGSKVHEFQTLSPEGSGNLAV
EphA2, sequence (P29317 24-976): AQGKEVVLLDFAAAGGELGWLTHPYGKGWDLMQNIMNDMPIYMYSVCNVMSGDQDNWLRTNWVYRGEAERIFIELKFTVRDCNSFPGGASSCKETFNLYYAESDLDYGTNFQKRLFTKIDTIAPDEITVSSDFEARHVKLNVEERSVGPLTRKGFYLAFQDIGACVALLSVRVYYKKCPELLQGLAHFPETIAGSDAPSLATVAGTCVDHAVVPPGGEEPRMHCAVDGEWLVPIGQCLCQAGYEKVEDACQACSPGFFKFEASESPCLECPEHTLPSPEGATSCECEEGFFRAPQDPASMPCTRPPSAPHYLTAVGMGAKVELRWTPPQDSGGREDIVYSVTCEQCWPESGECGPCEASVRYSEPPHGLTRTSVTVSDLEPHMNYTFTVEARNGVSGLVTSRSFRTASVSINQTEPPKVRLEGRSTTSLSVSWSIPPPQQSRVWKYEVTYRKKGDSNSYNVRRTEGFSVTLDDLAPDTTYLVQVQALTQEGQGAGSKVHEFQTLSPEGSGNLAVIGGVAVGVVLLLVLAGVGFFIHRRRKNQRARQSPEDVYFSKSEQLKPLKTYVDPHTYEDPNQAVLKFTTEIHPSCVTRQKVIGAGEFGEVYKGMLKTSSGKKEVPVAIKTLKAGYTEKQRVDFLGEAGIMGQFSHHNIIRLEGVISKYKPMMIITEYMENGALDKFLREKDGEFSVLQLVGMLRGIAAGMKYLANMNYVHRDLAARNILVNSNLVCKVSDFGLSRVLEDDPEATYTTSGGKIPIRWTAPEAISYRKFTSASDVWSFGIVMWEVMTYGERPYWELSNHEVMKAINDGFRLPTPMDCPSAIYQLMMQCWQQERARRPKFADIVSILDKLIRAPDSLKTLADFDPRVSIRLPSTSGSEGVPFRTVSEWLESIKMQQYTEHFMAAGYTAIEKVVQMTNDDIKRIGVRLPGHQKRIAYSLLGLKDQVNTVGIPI
T1 sequence (P29317 24-537): as the sequence (P29317 24-537 limits assumed) above

B1: Eph099B-208.261 (antibody, V domains shown)
VH: QVQLQQPGAELVKPGASVKLSCKASGYTFTSYWMHWVKQRPGQGLEWIGMIHPNSGSTNYNEKFKSKATLTVDKSSSTAYMRLSSLTSEDSAVYYCARGGNMVGGGYWGQGTTLTVSS
VL: QIVLTQSPALMSASPGEKVTMTCSASSSVSYMYWYQQKPRSSPKPWIYLTTNLASGVPARFSGSGSGTSYSLTISSMEAEDAATYYCQQWSSNPFTFGSGTKLEIR
notes: Mouse (SJL) hybridoma monoclonal antibody, ATCC PTA-4573
In the case of B1, the “Tumor growth, A549 implanted subcutaneously” value in assay [1] was “inhibited”. Moreover, in assay [2], the “Colony growth / formation in soft agar” value is “inhibited colony growth in soft agar; also recorded: inhibit malignant tumor cell growth in soft agar”. Further, the binding result in assay [3] was “binds”. Further, in [4], the EphA2 tyrosine phosphorylation entry is on record as “increased EphA2 phosphorylation; also recorded: promote EphA2 tyrosine phosphorylation in MDA-MB-231 cells”. Moreover, the “EphA2 protein level (degradation)” value in assay [5] was “decreased EphA2 protein level; also recorded: promote EphA2 degradation in MDA-MB-231 cells”. In assay [6], the “Koff rate compared with EA2” value was “slower Koff rates than EA2”. Besides, in [7], the “Tumor growth, MDA-MB-231 implanted subcutaneously” value is “inhibited; also recorded: inhibit tumor cell growth in vivo”. The “Effect on cancer cell colonies already formed in soft agar” value in assay [8] is recorded as “can kill cancer cells already growing in colonies in soft agar while other antibodies can slow or reduce cancer cell colony growth in soft agar”. Besides, in [9], the “Competition with labeled EA2 for binding to EphA2-Fc” value is on record as “could decrease the amount of labeled EA2 binding to EphA2-Fc; also recorded: can compete with EA2 for binding to EphA2”.
